According to patent US20200239543A1 (ALX ONCOLOGY, published 2020):

Assays:
[1] = target: T1, human Fcγ receptor RIIIA (CD16a) (human, UniProt P08637 17-208); test: SPR (ProteOn XPR36), biotinylated Fc construct on NLC chip, hFcγR as analyte, KD,app
T1 construct: bought recombinant protein; also called hFcγR

[2] = target: T2, human Fcγ receptor RIIB/C (CD32b/c) (human, UniProt P31994 46-217); test: as above
T2 construct: bought recombinant protein; also called CD32c; hFcγR
T2 sequence (looked up): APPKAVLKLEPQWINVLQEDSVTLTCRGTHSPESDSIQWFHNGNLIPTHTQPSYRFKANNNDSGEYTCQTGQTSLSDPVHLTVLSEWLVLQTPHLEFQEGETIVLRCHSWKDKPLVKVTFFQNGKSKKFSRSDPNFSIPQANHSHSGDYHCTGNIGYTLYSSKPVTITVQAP

[3] = target: T3, human Fcγ receptor RI (CD64) (human, UniProt P12314 16-288); test: as above
T3 construct: bought recombinant protein; also called hFcγRI; hFcγR

[4] = target: T4, human Fcγ receptor RIIA (CD32a) (human, UniProt P12318 36-218); test: as above
T4 construct: bought recombinant protein; also called hFcγR
T4 sequence (looked up): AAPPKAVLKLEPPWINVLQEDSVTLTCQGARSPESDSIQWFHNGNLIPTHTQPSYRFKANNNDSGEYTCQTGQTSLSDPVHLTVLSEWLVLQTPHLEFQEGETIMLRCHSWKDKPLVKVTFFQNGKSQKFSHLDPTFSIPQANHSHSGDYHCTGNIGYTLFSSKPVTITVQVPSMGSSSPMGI

[5] = target: T5, EGFR-ECD (epidermal growth factor receptor extracellular domain produced in HEK293 cells) (UniProt P00533 25-645, limits assumed); test: SPR (Proteon GLC chip), EGFR-ECD injected in the second injection over construct B bound to immobilised CD47
T5 construct: extracellular domain

[6] = target: T6, human CD47 (human, UniProt Q08722 19-139); test: SPR (Proteon GLC chip), CD47 immobilised by amine coupling, construct injected as analyte in the first injection (100 nM per paragraph 377)
T6 construct: extracellular domain; also called CD47 ECD

[7] = target: T5, EGFR-ECD (epidermal growth factor …); test: SPR (Proteon GLC chip), EGFR-ECD injected in the second injection over construct C bound to immobilised CD47
[8] = target: T5, EGFR-ECD (epidermal growth factor …); test: SPR (Proteon GLC chip), EGFR-ECD injected in the second injection over construct A bound to immobilised CD47
[9] = target: T6, human CD47; test: SPR (Biacore T100 and ProteOn XPR36)
[10] = target: T1, human Fcγ receptor RIIIA (CD16a); test: SPR (ProteOn XPR36), biotinylated Fc construct on NLC chip, hFcγR as analyte
[11] = target: T3, human Fcγ receptor RI (CD64); test: as above
[12] = target: T4, human Fcγ receptor RIIA (CD32a); test: as above
[13] = target: T2, human Fcγ receptor RIIB/C (CD32b/c); test: as above
[14] = target: T6, human CD47; test: SPR as in Example 1
[15] = target: T6, human CD47; test: SPR, 25 C, 1:1 Langmuir fit
[16] = target: T7, mouse CD47 (mouse, UniProt Q61735 19-140, limits assumed); test: SPR, 25 C, 1:1 Langmuir fit
T7 construct: also called mouse CD47 protein
T7 sequence (looked up): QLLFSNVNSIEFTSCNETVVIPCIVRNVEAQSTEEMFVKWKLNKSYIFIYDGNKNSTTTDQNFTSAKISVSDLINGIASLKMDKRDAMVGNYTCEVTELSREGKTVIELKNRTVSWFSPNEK

T1 sequence (P08637 17-208 limits assumed): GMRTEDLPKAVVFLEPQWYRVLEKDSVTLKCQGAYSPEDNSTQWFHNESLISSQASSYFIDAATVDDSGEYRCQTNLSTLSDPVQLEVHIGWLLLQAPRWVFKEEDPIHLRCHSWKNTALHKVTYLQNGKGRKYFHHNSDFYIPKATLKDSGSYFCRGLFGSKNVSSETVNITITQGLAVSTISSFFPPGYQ
T3 sequence (P12314 16-288 limits assumed): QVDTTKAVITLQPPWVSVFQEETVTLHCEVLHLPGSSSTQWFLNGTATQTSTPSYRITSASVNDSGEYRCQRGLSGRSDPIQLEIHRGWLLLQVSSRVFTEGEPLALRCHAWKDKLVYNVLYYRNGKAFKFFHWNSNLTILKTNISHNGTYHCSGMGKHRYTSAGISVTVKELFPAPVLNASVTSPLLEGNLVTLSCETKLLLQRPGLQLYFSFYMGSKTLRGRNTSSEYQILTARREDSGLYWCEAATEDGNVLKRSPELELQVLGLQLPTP
T6 sequence (Q08722 19-139 limits assumed): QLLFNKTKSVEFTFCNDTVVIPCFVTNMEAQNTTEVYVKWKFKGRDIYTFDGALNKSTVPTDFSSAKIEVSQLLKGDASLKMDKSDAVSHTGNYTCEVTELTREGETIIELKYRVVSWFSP

Fc variant construct IgG4_S228P, L235E (Fc fusion)
Kd [1]: 2400 nM | Kd [2]: 1100 nM | Kd [3]: 60 nM | Kd [4]: 1200 nM

B1: single-arm SIRP-α-Fc fusion, heterodimer of SEQ ID NO: 139 (an Fc variant) and SEQ ID NO: 142 (a SIRP-α-Fc fusion) (Fc fusion)
chain 1: EEELQIIQPDKSVLVAAGETATLRCTITSLFPVGPIQWFRGAGPGRELIYNQREGPFPRVTTVSDTTKRNNMDFSIRIGAITPADAGTYYCVKFRKGSPDDVEFKSGAGTELSVRAKPSDKTHTCPPCPAPEAAGAPSVFLFPPKPKDTLMISRTPEVTCVVVDVSHEDPEVKFNWYVDGVEVHNAKTKPREEQYASTYRVVSVLTVLHQDWLNGKEYKCKVSNKALPAPIEKTISKAKGQPREPQVYTLPPSREEMTKNQVSLWCLVKGFYPSDIAVEWESNGQPENNYKTTPPVLDSDGSFFLYSKLTVDKSRWQQGNVFSCSVMHEALHNHYTQKSLSLSPGK
chain 2: DKTHTCPPCPAPEAAGAPSVFLFPPKPKDTLMISRTPEVTCVVVDVSHEDPEVKFNWYVDGVEVHNAKTKPREEQYASTYRVVSVLTVLHQDWLNGKEYKCKVSNKALPAPIEKTISKAKGQPREPQVYTLPPSREEMTKNQVSLSCAVKGFYPSDIAVEWESNGQPENNYKTTPPVLDSDGSFFLVSKLTVDKSRWQQGNVFSCSVMHEALHNHYTQKSLSLSPGK
notes: knob and hole heterodimer
binding result [5]: no binding | binding result [6]: binds

B2: single-arm SIRP-α-Fc fusion, heterodimer of SEQ ID NO: 139 (an Fc variant) and SEQ ID NO: 138 (a SIRP-α Fc fusion) (Fc fusion)
chain 1: EEELQIIQPDKSVLVAAGETATLRCTITSLFPVGPIQWFRGAGPGRVLIYNQRQGPFPRVTTVSDTTKRNNMDFSIRIGAITPADAGTYYCIKFRKGSPDDVEFKSGAGTELSVRAKPSDKTHTCPPCPAPEAAGAPSVFLFPPKPKDTLMISRTPEVTCVVVDVSHEDPEVKFNWYVDGVEVHNAKTKPREEQYASTYRVVSVLTVLHQDWLNGKEYKCKVSNKALPAPIEKTISKAKGQPREPQVYTLPPSREEMTKNQVSLWCLVKGFYPSDIAVEWESNGQPENNYKTTPPVLDSDGSFFLYSKLTVDKSRWQQGNVFSCSVMHEALHNHYTQKSLSLSPGK
chain 2: DKTHTCPPCPAPEAAGAPSVFLFPPKPKDTLMISRTPEVTCVVVDVSHEDPEVKFNWYVDGVEVHNAKTKPREEQYASTYRVVSVLTVLHQDWLNGKEYKCKVSNKALPAPIEKTISKAKGQPREPQVYTLPPSREEMTKNQVSLSCAVKGFYPSDIAVEWESNGQPENNYKTTPPVLDSDGSFFLVSKLTVDKSRWQQGNVFSCSVMHEALHNHYTQKSLSLSPGK
notes: knob and hole heterodimer
binding result [7]: no binding | binding result [6]: binds

B3: SIRP-α-Fc fusion, homodimer of SEQ ID NO: 136 (Fc fusion)
chain: EEELQIIQPDKSVLVAAGETATLRCTITSLFPVGPIQWFRGAGPGRELIYNQREGPFPRVTTVSDTTKRNNMDFSIRIGAITPADAGTYYCVKFRKGSPDDVEFKSGAGTELSVRAKPSDKTHTCPPCPAPEAAGAPSVFLFPPKPKDTLMISRTPEVTCVVVDVSHEDPEVKFNWYVDGVEVHNAKTKPREEQYASTYRVVSVLTVLHQDWLNGKEYKCKVSNKALPAPIEKTISKAKGQPREPQVYTLPPSREEMTKNQVSLTCLVKGFYPSDIAVEWESNGQPENNYKTTPPVLDSDGSFFLYSKLTVDKSRWQQGNVFSCSVMHEALHNHYTQKSLSLSPG
binding result [8]: no binding | Kd [9]: 0.139 nM

B4: SIRP-α D1 variant fused to Fc variant IgG1 L234A, L235A, G237A, N297A, SEQ ID NO: 96 (Fc fusion)
chain: EEELQIIQPDKSVLVAAGETATLRCTITSLFPVGPIQWFRGAGPGRVLIYNQRQGPFPRVTTVSDTTKRNNMDFSIRIGNITPADAGTYYCIKFRKGSPDDVEFKSGAGTELSVRAKPSDKTHTCPPCPAPEAAGAPSVFLFPPKPKDTLMISRTPEVTCVVVDVSHEDPEVKFNWYVDGVEVHNAKTKPREEQYASTYRVVSVLTVLHQDWLNGKEYKCKVSNKALPAPIEKTISKAKGQPREPQVYTLPPSREEMTKNQVSLTCLVKGFYPSDIAVEWESNGQPENNYKTTPPVLDSDGSFFLYSKLTVDKSRWQQGNVFSCSVMHEALHNHYTQKSLSLSPGK
binding result [10]: no binding (tested: 5000 nM) | binding result [11]: no binding (tested: 5000 nM) | binding result [12]: no binding (tested: 5000 nM) | binding result [13]: no binding (tested: 5000 nM) | Kd [14]: 0.0351 nM | Kd [15]: 0.0104 nM | Kd [16]: 33.2 nM

B5: SIRP-α Fc construct with Fc variant IgG2_N297A, SEQ ID NO: 128 (Fc fusion)
chain: EEELQIIQPDKSVLVAAGETATLRCTITSLFPVGPIQWFRGAGPGRVLIYNQRQGPFPRVTTVSDTTKRNNMDFSIRIGNITPADAGTYYCIKFRKGSPDDVEFKSGAGTELSVRAKPSERKCCVECPPCPAPPVAGPSVFLFPPKPKDTLMISRTPEVTCVVVDVSHEDPEVQFNWYVDGVEVHNAKTKPREEQFASTFRVVSVLTVVHQDWLNGKEYKCKVSNKGLPAPIEKTISKTKGQPREPQVYTLPPSREEMTKNQVSLTCLVKGFYPSDIAVEWESNGQPENNYKTTPPMLDSDGSFFLYSKLTVDKSRWQQGNVFSCSVMHEALHNHYTQKSLSLSPGK
binding result [10]: no binding (tested: 5000 nM) | binding result [11]: no binding (tested: 5000 nM) | binding result [12]: no binding (tested: 5000 nM) | binding result [13]: no binding (tested: 5000 nM)
